Measurements: PMC10716096, “A scalable overexpression of a thermostable recombinant poly-histidine tag carboxyl esterase under lambda promoter: purification, characterization, and protein modelling” (Journal of Genetic Engineering & Biotechnology, 2023)

Tested on: CCCCCCCCCCCC(=O)Oc1ccc([N+](=O)[O-])cc1
Experiment: purified protein
Details: pH 7.4, 60 °C, substrate 10-30 mM

Substance: EstB (6xHis carboxyl-esterase B) (Geobacillus thermoleovorans)
- Km: 22.756 mM
- kcat: 0.993 s⁻¹
